{"source": "patent US20230077716A1", "about": "(published 2023)", "biological_target": "recombinant B/Phuket/3073/2013 NA ectodomain (tetramer) (UniProt P16199 79-465)", "test": "BLI", "note": "Several values for one entry are separate records, joined by “and”; a condition that tells them apart may be missing. Equal values may be shown once.", "data": [{"binder": "2E01 Fab (Fab, V domains shown) VH: EVQLVQSGAEVKKPGSSVKVSCKASGYTFINHALSWVRQAPGQGLEWVGGIIPIFGLAKYGQKFQDRVTITADESTKTAYMDLRSLRSDDTAVYYCARDTVAVYEDFDWSSPYFFYMDVWGKGTTVTVSS VL: EIVLTQSPATLSLFPGERATLSCRASQSAGSKSLAWYQHKVGQPPRLLINGASSRATGIPDRFSGSGSGPDFNLTISRLEPEDFAVYYCQRYGTSLVTFGGGTKVEIK", "values": [{"measurement": "Kd", "result": "441 nM and 150 nM"}]}]}
